One block for each binder: values may come before it.
Tests used:
[1] = molecular target: T1, rHuman P-Cadherin/Fc Chimera, CF (R&D Systems Cat#861-PC) (human, UniProt P22223 108-654); experiment: ECL (MSD Multi-Spot) binding assay, antigen spotted on plate; Fab 240 nM; blank spot 316;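 note: blank spot per well as comparator with Hit at signal to blank ratio of 4 or more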
T1 construct: Bought Fc chimera; also called CDH3; Fc part of the bought chimera not given

[2] = molecular target: T2, rHuman Erythropoietin R/Fc Chimera, CF (R&D Systems Cat#963-ER) (human, UniProt P19235 25-250); experiment: as above
T2 construct: Bought Fc chimera; also called EPO R/Fc; Epo R; Fc part of the bought chimera not given
T2 sequence: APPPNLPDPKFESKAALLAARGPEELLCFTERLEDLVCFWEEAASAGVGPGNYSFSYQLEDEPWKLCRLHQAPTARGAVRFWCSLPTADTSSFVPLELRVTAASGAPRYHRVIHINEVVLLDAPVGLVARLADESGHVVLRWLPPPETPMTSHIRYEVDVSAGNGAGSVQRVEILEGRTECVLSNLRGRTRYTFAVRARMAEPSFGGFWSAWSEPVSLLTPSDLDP

[3] = molecular target: T3, Recombinant Human DLL4 (R&D Systems Cat#1506-D4/CF) (human, UniProt Q9NR61 27-524); experiment: as above
T3 construct: Bought recombinant protein; also called delta-like protein 4; rHuman DLL4

[4] = molecular target: T4, rHuman CD44/Fc Chimera, CF (R&D Systems Cat#3660-CD) (human, UniProt P16070 21-220); experiment: as above
T4 construct: Bought Fc chimera; Fc part of the bought chimera not given

[5] = molecular target: T5, rHuman Notch-1/Fc Chimera, CF (R&D Systems Cat#3647-TK) (human, UniProt P46531 19-526); experiment: as above
T5 construct: Bought Fc chimera; Fc part of the bought chimera not given

[6] = molecular target: T6, rHuman P-Cadherin/Fc Chimera, CF (R&D Systems Cat#861-PC) (human, UniProt P22223 108-654); experiment: ECL (MSD multi-spot), antigen spotted on plate; Fab 88.1 nM; blank spot 301;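 note: blank spot per well as comparator with Hit at signal to blank ratio of 4 or more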
T6 construct: Bought reagent; also called CDH3; Fc part of the bought chimera not given

[7] = molecular target: T7, rHuman EGF R/Fc Chimera, CF (R&D Systems Cat#344-ER) (human, UniProt P00533 25-645); experiment: as above
T7 construct: Bought reagent; also called epidermal growth factor receptor; Fc part of the bought chimera not given

[8] = molecular target: T8, rHuman CD44/Fc Chimera, CF (R&D Systems Cat#3660-CD) (human, UniProt P16070 21-220); experiment: as above
T8 construct: Bought reagent; Fc part of the bought chimera not given

[9] = molecular target: T9, rHuman Erythropoietin R/Fc Chimera, CF (R&D Systems Cat#963-ER) (human, UniProt P19235 25-250); experiment: as above
T9 construct: Bought reagent; also called EPO R/Fc; Epo R; Fc part of the bought chimera not given
T9 sequence: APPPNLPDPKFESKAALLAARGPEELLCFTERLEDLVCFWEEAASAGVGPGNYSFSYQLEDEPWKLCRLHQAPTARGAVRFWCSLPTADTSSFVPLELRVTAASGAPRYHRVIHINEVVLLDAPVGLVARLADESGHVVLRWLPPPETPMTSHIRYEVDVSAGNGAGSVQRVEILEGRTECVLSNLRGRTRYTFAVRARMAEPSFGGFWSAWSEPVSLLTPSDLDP

[10] = molecular target: T10, rHuman ErbB2/Fc Chimera, CF (R&D Systems Cat#1129-ER) (human, UniProt P04626 23-652); experiment: as above
T10 construct: Bought reagent; also called HER2/neu; human epidermal growth factor 2 receptor; Fc part of the bought chimera not given

[11] = molecular target: T11, rHuman HGF R/c-MET/Fc Chimera, CF (R&D Systems Cat#358-MT/CF) (human, UniProt P08581 25-932); experiment: as above
T11 construct: Bought reagent; also called HGF R/Fc; hepatocyte growth factor receptor; Fc part of the bought chimera not given

[12] = molecular target: T12, Recombinant Human DLL4 (R&D Systems Cat#1506-D4/CF) (human, UniProt Q9NR61 27-524); experiment: as above
T12 construct: Bought reagent; also called delta-like protein 4

[13] = molecular target: T13, rHuman IGF-1 sR (IGF-1 sR), CF (R&D Systems Cat#391-GR) (human, UniProt P08069 31-932); experiment: as above
T13 construct: Bought soluble receptor; also called insulin-like growth factor-1 soluble receptor; IGF-R1

[14] = molecular target: T14, rHuman Notch-1/Fc Chimera, CF (R&D Systems Cat#3647-TK) (human, UniProt P46531 19-526); experiment: as above
T14 construct: Bought reagent; Fc part of the bought chimera not given

[15] = molecular target: T14, rHuman Notch-1/Fc Chimera, CF (R&D …); experiment: ECL (MSD multi-spot), antigen spotted on plate; Fab 352.5 nM; blank spot 494;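 note: blank spot per well as comparator with Hit at signal to blank ratio of 4 or more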
[16] = molecular target: T15, rHuman ErbB2/Fc Chimera, CF (R&D Systems Cat#1129-ER) (human, UniProt P04626 23-652); experiment: ECL (MSD multi-spot), antigen on plate, Fab 0.5 nM
T15 construct: Bought Fc chimera; also called HER2/neu; not shown: Fc of the bought chimera

[17] = molecular target: T16, rHuman Notch-1/Fc Chimera, CF (R&D Systems Cat#3647-TK) (human, UniProt P46531 19-526); experiment: ECL (MSD multi-spot), antigen on plate, Fab 0.5 nM
T16 construct: Bought Fc chimera; not shown: Fc of the bought chimera

[18] = molecular target: T17, rHuman CD44/Fc Chimera, CF (R&D Systems Cat#3660-CD) (human, UniProt P16070 21-220); experiment: ECL (MSD multi-spot), antigen on plate, Fab 0.5 nM
T17 construct: Bought Fc chimera; not shown: Fc of the bought chimera

ECL signal [1]: 383 | ECL signal [2]: 478 | ECL signal [3]: 1270 | ECL signal [4]: 470 | ECL signal [5]: 368
B1: Fab VH6-1_IGHD3-3*01_IGHJ4*01 & V4-3_IGLJ4*01 (Fab, V domains shown)
VH: QVQLQQSGPGLVKPSQTLSLTCAISGDSVSSNSAAWNWIRQSPSRGLEWLGRTYYRSKWYNDYAVSVKSRITINPDTSKNQFSLQLNSVTPEDTAVYYCAREYYDFWSGYYTDYFDYWGQGTLVTVSS
VL: QPVLTQPTSLSASPGASARLTCTLRSGINLGSYRIFWYQQKPESPPRYLLSYYSDSSKHQGSGVPSRFSGSKDASSNAGILVISGLQSEDEADYYCMIWHSSASFVFGGGTQLIIL
notes: Tested as a Fab made in E. coli; also called IGHV6-1*01

ECL signal [6]: 278 | ECL signal [7]: 376 | ECL signal [8]: 340 | ECL signal [9]: 3370 | ECL signal [10]: 200 | ECL signal [11]: 392 | ECL signal [12]: 434 | ECL signal [13]: 273 | ECL signal [14]: 440 | ECL signal [15]: 715
B2: Fab VH1-46_IGHD3-10*01_IGHJ4*01 & B3_IGKJ1*01 (Fab, V domains shown)
VH: QVQLVQSGAEVKKPGASVKVSCKASGYTFTSYYMHWVRQAPGQGLEWMGIINPSGGSTSYAQKFQGRVTMTRDTSTSTVYMELSSLRSEDTAVYYCAREYYYGSGSYYNDYFDYWGQGTLVTVSS
VL: not shown
notes: also called IGHV1-46*01

ECL signal [16]: 1720 ECL signal | ECL signal [17]: 1760 ECL signal | ECL signal [18]: 1560 ECL signal
B3: Fab VH1-46_IGHD6-6*01_IGHJ1*01_S102A_S103P_S104Y_H111Y & L6_IGKJ1*01 (Fab, V domains shown)
VH: QVQLVQSGAEVKKPGASVKVSCKASGYTFTSYYMHWVRQAPGQGLEWMGIINPSGGSTSYAQKFQGRVTMTRDTSTSTVYMELSSLRSEDTAVYYCAREEYAPYSAEYFQYWGQGTLVTVSS
VL: not shown
notes: Fab made in E. coli; The heavy chain also carries CH1 with Flag and His tags from Plasmid A, and the light chain carries kappa CL from Plasmid C
